Laboratory results published in IntAct's records for PubMed 24291789.

B1: Cohesin subunit psc3 (Schizosaccharomyces pombe (strain ATCC 38366 / 972)), O13816 (parent)
chain: MSESVTTGSDDDGGDRESSPVMLSQSFDPMSSSSNSSSEENSDDDYEKTISSKKRHPRPNSKGVNVKRSRRNAIVEEDPQEEIFNNLFAFLLDQKVDTMDIAVSWFADYAKDNQSALANLINFILKCCGCNRAINVFDVQDQDSASATLSQIQLSVERTSTRDYPLNSKNLKFRNFRKRLTGLLSNFVSQLSIRNYLYNSTVFEDIMSWVVAMSSSTMRPIRHTATVFCLNIMTFLCEKSKELLNEHAIATKQLEKEEKRSRVNRNRINELNNSLGEIVKQQDTLTTYLNDYFDSVFVHRYRDVEPKIRVDCLQELGVWINTVPSIFFSGSYLRYLGWMLSDINTTVRLTVVKVLRKFFETDSFIGGLRHFSSRFKERILEMSCVDADIGVRVASIRLCNAMRTCGFLENSEILKVLKLILDINPRVQREAVLFLCKVVDESVNEKIDLWGEEDYILKAFSQTSLTTFSVHWIKFSQMCKLLEEVRLSYQSSFDYDTLLRIFQKNGNFITPITQALLNACEIDSIYQSWEDISNFVLFDNYTSTLKDPIDSILSFCKLNDFQESILLQLLSASIQTVCNNNFITPKTVHNKQAAETTNDQNKDKDLLYLNLLPYINSITERNSASPTLLHDSLRLLFSMDLTEMTDPQLSRHFELLINNLKKFFLTNNDLQIIQGCTILFLRLDSIPALKEDLKLLVTDICDQTVTEFLKNFGSFNIQDAVITKDEFVIFEACLTRIEGCTSLKDFSDYPEFDIIYERLVSLLSRVPNSYEDTLKFSAINTLQSLLFWFFLRKDNPADEEKKKDDETKVFNCLINIMNNDSSKILQLQAARTFLETVIMKEGVKASHYNDDNRVSEEHNFLKPQFLDALLKILEGWLYTYAKVGQFPFKRLTQASSPHTQISLDKNPLNRRLLEHVCCDLTSKLLIVVSLSNTITPEFSQQFCELRGHYGPKLSAIVDEFLN

Variants of: B1
Details: with mis4_schpo mis4, Q09725
mis4_schpo mis4, Q09725, sequence (Q09725 whole entry): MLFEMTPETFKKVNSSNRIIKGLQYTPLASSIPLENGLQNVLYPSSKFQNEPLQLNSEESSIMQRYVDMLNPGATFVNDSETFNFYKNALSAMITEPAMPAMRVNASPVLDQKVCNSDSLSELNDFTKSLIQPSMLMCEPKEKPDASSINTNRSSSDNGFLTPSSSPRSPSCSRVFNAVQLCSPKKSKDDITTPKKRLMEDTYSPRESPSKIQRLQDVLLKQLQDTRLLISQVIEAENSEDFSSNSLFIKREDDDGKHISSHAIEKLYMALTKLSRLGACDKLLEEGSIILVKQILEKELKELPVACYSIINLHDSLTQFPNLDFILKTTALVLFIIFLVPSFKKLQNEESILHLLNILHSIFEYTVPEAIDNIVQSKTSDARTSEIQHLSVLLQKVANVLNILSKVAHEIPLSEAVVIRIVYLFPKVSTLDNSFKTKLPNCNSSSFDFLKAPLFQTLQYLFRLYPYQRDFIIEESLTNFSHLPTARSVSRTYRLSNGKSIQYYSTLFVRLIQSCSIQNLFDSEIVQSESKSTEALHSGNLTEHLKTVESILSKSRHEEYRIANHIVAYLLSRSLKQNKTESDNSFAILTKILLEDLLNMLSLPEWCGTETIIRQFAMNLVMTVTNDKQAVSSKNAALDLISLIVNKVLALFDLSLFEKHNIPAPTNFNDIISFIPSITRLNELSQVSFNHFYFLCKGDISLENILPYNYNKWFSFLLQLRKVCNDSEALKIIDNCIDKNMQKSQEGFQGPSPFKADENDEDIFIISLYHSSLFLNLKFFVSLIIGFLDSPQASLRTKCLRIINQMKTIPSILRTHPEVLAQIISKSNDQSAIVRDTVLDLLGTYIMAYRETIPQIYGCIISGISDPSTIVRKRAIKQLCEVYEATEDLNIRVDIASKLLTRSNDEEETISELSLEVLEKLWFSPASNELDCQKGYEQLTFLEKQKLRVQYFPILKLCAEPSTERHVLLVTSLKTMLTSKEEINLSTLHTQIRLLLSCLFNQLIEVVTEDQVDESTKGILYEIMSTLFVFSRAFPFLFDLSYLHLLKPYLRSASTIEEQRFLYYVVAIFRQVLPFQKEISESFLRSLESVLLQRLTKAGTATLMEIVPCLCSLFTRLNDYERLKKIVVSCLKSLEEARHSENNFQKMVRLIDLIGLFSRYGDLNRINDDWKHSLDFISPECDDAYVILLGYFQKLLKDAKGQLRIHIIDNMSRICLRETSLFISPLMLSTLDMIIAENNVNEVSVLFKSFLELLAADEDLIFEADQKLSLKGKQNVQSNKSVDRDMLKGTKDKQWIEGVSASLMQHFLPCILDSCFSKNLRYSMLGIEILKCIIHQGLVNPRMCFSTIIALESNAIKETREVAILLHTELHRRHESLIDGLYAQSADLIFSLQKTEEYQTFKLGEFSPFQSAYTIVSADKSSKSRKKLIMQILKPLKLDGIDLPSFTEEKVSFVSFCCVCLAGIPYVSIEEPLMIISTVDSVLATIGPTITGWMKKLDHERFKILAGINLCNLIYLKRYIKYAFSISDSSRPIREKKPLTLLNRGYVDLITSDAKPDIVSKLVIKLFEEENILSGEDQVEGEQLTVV

| Variant | effect of a mutation on the interaction |
| --- | --- |
| R300G | decreasing interaction strength |
| P306L | decreasing interaction strength |
